Data from doi:10.1101/343756.

Columns and labels:
[1] = molecular target: T1, human ETA receptor (human) (UniProt P25101)
T1 sequence: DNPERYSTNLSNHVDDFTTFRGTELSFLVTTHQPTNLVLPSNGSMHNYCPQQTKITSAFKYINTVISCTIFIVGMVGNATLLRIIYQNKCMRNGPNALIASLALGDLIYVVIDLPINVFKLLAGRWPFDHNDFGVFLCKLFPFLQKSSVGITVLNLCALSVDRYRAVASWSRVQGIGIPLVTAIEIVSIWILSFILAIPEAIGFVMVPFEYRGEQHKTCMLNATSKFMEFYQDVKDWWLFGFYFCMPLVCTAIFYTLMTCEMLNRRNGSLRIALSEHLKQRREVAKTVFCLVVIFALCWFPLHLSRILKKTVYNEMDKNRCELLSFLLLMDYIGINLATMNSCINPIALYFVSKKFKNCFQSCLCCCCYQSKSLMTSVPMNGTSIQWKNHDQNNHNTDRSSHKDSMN

[2] = molecular target: human ETB receptor, wild type, construct with an internal FLAG epitope tag (human) (UniProt P24530)
[3] = molecular target: human ETB receptor, wild type, fused to SmBiT (ETB-SmBiT) (human) (UniProt P24530)
[4] = molecular target: thermostabilized human ETB receptor (ETB-Y5) fused to SmBiT (human) (UniProt P24530)
[5] = molecular target: thermostabilized human ETB receptor (ETB-Y5), construct with an internal FLAG epitope tag (human) (UniProt P24530)
[6] = molecular target: human ETB receptor L252H I254T double mutant, construct with an internal FLAG epitope tag (human) (UniProt P24530)
[7] = molecular target: T2, human ETA receptor fused to SmBiT (ETA-SmBiT) (human) (UniProt P25101)
T2 sequence: T1 sequence

Row | Substance | AP-TGFα release (TGFα shedding assay), no activation at the concentration tested [1] [nM] | EC50, AP-TGFα release (TGFα shedding assay, G-protein activation), HEK293 cells [2] [nM] | Emax, TGFα shedding assay, percent of that of ET-1 [2] [%] | Emax, NanoBiT β-arrestin recruitment assay, percent of that of ET-1 [3] [%] | Emax, NanoBiT β-arrestin recruitment assay, percent of that of ET-1 [4] [%] | Emax, TGFα shedding assay, percent of that of ET-1 [5] [%] | change of EC50 against the wild type receptor, TGFα shedding assay [6] [fold] | EC50 against that of ET-1, TGFα shedding assay [1] [fold] | EC50 against that of ET-1, NanoBiT β-arrestin recruitment assay [7] [fold]
1 | IRL1620 (N-Suc-[E9, A11, 15] ET-1(8-21)) (peptide) | > 320 | 0.11 | 88 | 87 | 85 | 84 | 2 | – | –
2 | endothelin-3 (from UniProt P14138 97-117) (peptide) | – | – | – | – | – | – | – | 5 | 5
